Test results published in patent US9266964.
Where a chain is given by its changes, count along the chain named.

B1: X59-C07 (antibody, V domains shown)
VH: EVQLLESGGGLVQPGGSLRLSCAASGFTFSHYLMTWVRQAPGKGLEWVSYISPSGGHTIYADSVKGRFTISRDNSKNTLYLQMNSLRAEDTAVYYCARVARGIAARSRTSYFDYWGQGTLVTVSS
VL: DIQMTQSPSSLSASVGDRVTVTCRAGRSISTYVNWYQQKPGKAPKLLIYAASSLQSGVPSRFSGSRSGTDFTLTISSLQPEDFATYYCQQSQSTPYTFGQGTKLEVK
notes: Found by ROLIC light chain shuffling
B2: X60-D01 (antibody, V domains shown)
VH: B1 VH
VL: DIQMTQSPGTLSLSPGERATLSCRASQIVSSRYLAWYQQRPGQAPRLLIYGAASRATGIPDRFSGSGSGTDFTLTISSLQAEDFATYYCQQTYSSPFTFGQGTKMEIK
notes: as for B1
B3: X63-G10 (antibody, V domains shown)
VH: B1 VH
VL: DIQMTQSPDSLSASVGDRVTITCRASQSISNYLNWYQQKPGKAPKLLIYAASSLQSGVPSRFSGSGSGTDFTLTISGLQPEDFASYYCQQSYTSPYTFVQGTKLEIKR
notes: as for B1
B4: X64-F04 (antibody, V domains shown)
VH: B1 VH
VL: DIQMTQSPATLSLSPGERATLSCRASQIVSSNYLAWYQQKPGQAPRLLIYGASNRATGIPDRFSGSGSGTEFTLTISSLQSEDFAIYYCQQSFNIPYTFGQGTRVDIK
notes: as for B1
B5: M29-D09 (Fab, V domains shown)
VH: EVQLLESGGGLVQPGGSLRLSCAASGFTFSWYTMVWVRQAPGKGLEWVSYIYPSGGATFYADSVKGRFTISRDNSKNTLYLQMNSLRAEDTAVYYCAMGSYDYIWGFYSDHWGQGTLVTVSS
VL: QSALTQPPTVSVSPGQTARITCSGNKLGDKYVAWYQQKPGQSPMLVIYQDTKRPSRVSERFSGSNSANTATLSISGTQALDEADYYCQAWDSSIVIFGGGTRLTVL
notes: also called 559A-M29-D09 (sFab); 559A-M0029-D09
B6: M145-D11 (Fab, V domains shown)
VH: EVQLLESGGGLVQPGGSLRLSCAASGFTFSHYRMSWVRQAPGKGLEWVSSIYPSGGRTVYADSVKGRFTISRDNSKNTLYLQMNSLRAEDTAVYYCAKDKFEWRLLFRGIGNDAFDIWGQGTMVTVSS
VL: QSVLTQPPSVSVSPGQTASITCSGDKLGDKYTSWYQQRPGQSPVLVIYQDIKRPSGIPERFSGSNSGNTATLTISGTQAMDEADYYCQAWDSPNARVFGSGTKVTVL
notes: also called 559A-M145-D11 (sFab); 559A-M0145-D11
B7: M160-G12 (antibody, V domains shown)
VH: B1 VH
VL: DIQMTQSPSFLSASVGDRVTITCRASQGISSYLAWYQQKPGKAPKLLIYAASTLQSGVPSRFSGSGSGTEFTLTISSLQPEDFATYYCQQLNSYPLTFGGGTKVEIK
notes: also called R84-D02
B8: M6-D09 (antibody, V domains shown)
VH: EVQLLESGGGLVQPGGSLRLSCAASGFTFSFYYMVWVRQAPGKGLEWVSVIYPSGGITVYADSVKGRFTISRDNSKNTLYLQMNSLRAEDTAVYYCARDKWAVMPPYYYYAMDVWGQGTTVTVSS
VL: DIQMTQSPSSLSASVGDRVTITCRASQSIRNYLNWYQQKPGKAPNLLIYAASTLQSGVPARFSGSGSGTDFTLTISSLQPEDFATYYCQQLSGYPHTFGQGTKLEIK
notes: also called M06-D09; 559A-M06-D09
B9: M35-G04 (antibody, V domains shown)
VH: EVQLLESGGGLVQPGGSLRLSCAASGFTFSYYHMSWVRQAPGKGLEWVSVISPSGGSTKYADSVKGRFTISRDNSKNTLYLQMNSLRAEDTAVYYCARGGSSDYAWGSYRRPYYFDYWGQGTLVTVSS
VL: DIQMTQSPATLSLSPGERATLSCRASQSVSSYLAWYQQKPGQAPRLLIYDASNRATGIPARFSGSGSGTDFTLTISSLEPEDFAVYYCQQRSNWPRGFTFGPGTKVDIK
notes: also called 559A-M35-G04; 559A-M0035-G04
B10: M29-D09 (Fab, V domains shown)
VH: B5 VH
VL: B5 VL
notes: as for B5
B11: X115-F02 (Fab, V domains shown)
VH: EVQLLESGGGLVQPGGSLRLSCAASGFTFSHYIMMWVRQAPGKGLEWVSGIYSSGGITVYADSVKGRFTISRDNSKNTLYLQMNSLRAEDTAVYYCAYRRIGVPRRDEFDIWGQGTMVTVSS
VL: DIQMTQSPSTLSASVGDRVTITCRASQSISSWLAWYQQKPGKAPKLLIYKASTLESGVPSRFSGSGSGTEFTLTISSLQPDDFATYYCQQYNTYWTFGQGTKVEIK
notes: also called 559A-X115-F02; 559A-X0115-F02
B12: X115-D01 (antibody, V domains shown)
VH: EVQLLESGGGLVQPGGSLRLSCAASGFTFSIYSMHWVRQAPGKGLEWVSSIYPSRGMTWYADSVKGRFTISRDNSKNTLYLQMNSLRAEDTAVYYCAYRRTGIPRRDAFDIWGQGTMVTVSS
VL: B11 VL
notes: only variable domains given; also called 559A-X115-D01; 559A-X0115-D01
B13: X115-A03 (antibody, V domains shown)
VH: B11 VH with Y98W, E108S, I111M
VL: B11 VL
notes: only variable domains given; also called 559A-X115-A03; 559A-X0115-A03
B14: X115-G04 (antibody, V domains shown)
VH: B11 VH with I101T
VL: B11 VL
notes: only variable domains given; also called 559A-X115-G04; 559A-X0115-G04
B15: M145-D11 (Fab, V domains shown)
VH: B6 VH
VL: B6 VL
notes: as for B6
B16: M06-D09 (antibody, V domains shown)
VH: B8 VH
VL: B8 VL
notes: Only variable domains printed; also called M6-D09; 559A-M06-D09
B17: M35-G04 (antibody, V domains shown)
VH: B9 VH
VL: B9 VL
notes: Only variable domains printed; also called 559A-M35-G04; 559A-M0035-G04

molecular target: T1, human plasma kallikrein (human, UniProt P03952 20-390; P03952 391-638); test: Ki,app, enzyme inhibition of pKal; antibody format not stated
T1 construct: two disulfide linked chains; also called pKal; human pKal
T1 sequence (P03952 20-390, chain 1 of 2): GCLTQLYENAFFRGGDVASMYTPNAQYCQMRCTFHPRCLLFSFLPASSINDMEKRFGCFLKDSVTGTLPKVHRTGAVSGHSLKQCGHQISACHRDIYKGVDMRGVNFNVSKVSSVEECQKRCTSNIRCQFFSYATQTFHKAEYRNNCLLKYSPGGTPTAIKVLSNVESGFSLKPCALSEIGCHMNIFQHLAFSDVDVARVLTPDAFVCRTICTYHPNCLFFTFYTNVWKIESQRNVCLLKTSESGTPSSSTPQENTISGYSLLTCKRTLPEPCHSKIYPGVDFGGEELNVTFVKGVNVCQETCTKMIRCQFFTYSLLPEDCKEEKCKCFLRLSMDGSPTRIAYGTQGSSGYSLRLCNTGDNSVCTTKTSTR
T1 sequence (P03952 391-638, chain 2 of 2): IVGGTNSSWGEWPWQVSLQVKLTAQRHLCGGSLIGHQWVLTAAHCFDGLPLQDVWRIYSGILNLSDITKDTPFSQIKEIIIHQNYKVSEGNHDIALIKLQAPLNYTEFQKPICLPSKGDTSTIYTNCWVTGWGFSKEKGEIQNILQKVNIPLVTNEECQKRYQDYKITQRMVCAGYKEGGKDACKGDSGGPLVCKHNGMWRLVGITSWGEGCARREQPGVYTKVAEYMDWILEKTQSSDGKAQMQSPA

Row | Ki [nM] | Binder
1 | 6.1 | B1
2 | 2 | B2
3 | 9 | B3
4 | 1.9 | B4

molecular target: T2, human plasma kallikrein (active form) (human, UniProt P03952 20-390; P03952 391-638); test: apparent Ki (Ki,app), inhibition of human pKal enzyme activity
T2 construct: also called pKal; human pKal
Description: (§1) Apparent Inhibition constants (K_{i,app} values) were measured by pre-incubating enzyme and inhibitor solutions prior to initiating the reactions with substrate. Enzyme and inhibitor were pre-incubated for 2 hours at 30° C. in a 96-well plate by adding 10 μL of a 10× enzyme solution and 10 μL of 10× inhibitor solutions to 70 μL of reaction buffer. Reactions were initiated by the addition of 10 μL of a 10× concentrated stock of substrate, and were monitored at 30° C. in a fluorescence plate reader with the excitation and emission wavelengths set at 360 nm/460 nm, respectively. Kinetic data were acquired by the increase in fluorescence, and initial rates for each condition were plotted against the total inhibitor concentration. The data was fit to the following equation for tight binding inhibitors: […]

T2 sequence (P03952 20-390, chain 1 of 2): as the sequence (P03952 20-390, chain 1 of 2) above
T2 sequence (P03952 391-638, chain 2 of 2): as the sequence (P03952 391-638, chain 2 of 2) above

Row | Ki [nM] | Binder
5 | 0.7 | B5
6 | 0.79 | B6
7 | 5 | B7
8 | 5.9 | B8
9 | 2.9 | B9

molecular target: T3, mouse plasma kallikrein (mouse, UniProt P26262 20-638, limits assumed); test: apparent Ki (Ki,app), inhibition of mouse pKal enzyme activity
T3 construct: also called mouse pKal
Description: as §1

T3 sequence (P26262 20-638 limits assumed): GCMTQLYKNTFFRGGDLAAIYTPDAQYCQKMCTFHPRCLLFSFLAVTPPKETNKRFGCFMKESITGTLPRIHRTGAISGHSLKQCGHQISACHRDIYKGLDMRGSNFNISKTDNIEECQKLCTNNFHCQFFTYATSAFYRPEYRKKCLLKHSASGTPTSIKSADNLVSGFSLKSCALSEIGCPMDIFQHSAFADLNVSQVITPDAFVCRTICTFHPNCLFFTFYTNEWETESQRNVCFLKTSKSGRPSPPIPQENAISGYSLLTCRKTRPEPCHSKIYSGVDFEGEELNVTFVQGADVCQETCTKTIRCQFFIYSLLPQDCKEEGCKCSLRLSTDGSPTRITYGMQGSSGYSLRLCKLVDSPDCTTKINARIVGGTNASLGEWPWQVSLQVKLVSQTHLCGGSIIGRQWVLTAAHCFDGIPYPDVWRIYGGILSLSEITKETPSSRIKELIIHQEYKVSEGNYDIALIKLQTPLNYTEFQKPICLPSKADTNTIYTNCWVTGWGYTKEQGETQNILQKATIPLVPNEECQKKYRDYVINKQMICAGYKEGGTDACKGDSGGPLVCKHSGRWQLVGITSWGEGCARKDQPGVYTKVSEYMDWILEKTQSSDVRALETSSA

Row | Ki [nM] | Binder
10 | 800 | B6
11 | 0.2 | B7
12 | 3.9 | B8
13 | 8 | B9

molecular target: T4, pKal catalytic domain Mutant 1 (human, UniProt P03952 391-638, limits assumed); test: apparent Ki (Ki,app), enzyme inhibition, pKal catalytic domain Mutant 1
T4 construct: domain: catalytic domain; Expressed in Pichia pastoris, purified by IMAC; not shown: His tag fusion
Description: as §1

Row | Ki [nM] | Binder
14 | 0.27 | B5
15 | 0.23 | B6
16 | 3.4 | B8
17 | 0.09 | B9

molecular target: T5, pKal catalytic domain Mutant 2 (human, UniProt P03952 391-638, limits assumed); test: apparent Ki (Ki,app), enzyme inhibition, pKal catalytic domain Mutant 2
T5 construct: domain: catalytic domain; Expressed in Pichia pastoris, purified by IMAC; not shown: His tag fusion
Description: as §1

Row | Ki [nM] | Binder
18 | 0.34 | B5
19 | 0.1 | B6
20 | 13.5 | B8
21 | 1.1 | B9

molecular target: T6, wild type pKal catalytic domain (human, UniProt P03952 391-638, limits assumed); test: apparent Ki (Ki,app), enzyme inhibition, wild type pKal catalytic domain
T6 construct: domain: catalytic domain; also called WT cat; Domain; not shown: His tag fusion
Description: as §1

Row | Ki [nM] | Binder
22 | 0.24 | B5
23 | 0.16 | B6
24 | 2.5 | B8
25 | 0.8 | B9

molecular target: T7, human plasma kallikrein (full length, active) (human, UniProt P03952 20-390; P03952 391-638); test: Ki,app: enzyme inhibition, fluorescent substrate, 2 h pre-incubation at 30 C, tight-binding fit
T7 construct: two disulfide linked polypeptides; also called Full length pKal; pKal
Description: as §1

T7 sequence (P03952 20-390, chain 1 of 2): as the sequence (P03952 20-390, chain 1 of 2) above
T7 sequence (P03952 391-638, chain 2 of 2): as the sequence (P03952 391-638, chain 2 of 2) above

Row | Ki [nM] | Binder
26 | 0.7 | B10
27 | 0.089 | B11
28 | 0.18 | B12
29 | 0.16 | B13
30 | 0.6 | B14
31 | 0.79 | B15
32 | 5.9 | B16
33 | 2.9 | B17

molecular target: T8, wild type pKal catalytic domain (human, UniProt P03952 391-638, limits assumed); test: as above
T8 construct: domain: catalytic domain; The expression in Pichia pastoris with a His tag and IMAC purification is told of the mutants; also called WT cat; Domain; not shown: His tag fusion
Description: as §1

Row | Ki [nM] | Binder
34 | 0.24 | B10
35 | 0.09 | B11
36 | 0.18 | B12
37 | 0.16 | B13
38 | 0.3 | B14
39 | 0.16 | B15
40 | 2.5 | B16
41 | 0.8 | B17

molecular target: T9, pKal catalytic domain Mutant 1 (human, UniProt P03952 391-638, limits assumed); test: as above
T9 construct: domain: catalytic domain; Expressed in Pichia pastoris, purified by IMAC; not shown: His tag fusion
Description: as §1

Row | Ki [nM] | Binder
42 | 0.27 | B10
43 | 0.14 | B11
44 | 0.26 | B12
45 | 0.23 | B13
46 | 0.4 | B14
47 | 0.23 | B15
48 | 3.4 | B16
49 | 0.09 | B17

molecular target: T10, pKal catalytic domain Mutant 2 (human, UniProt P03952 391-638, limits assumed); test: as above
T10 construct: domain: catalytic domain; Expressed in Pichia pastoris, purified by IMAC; not shown: His tag fusion
Description: as §1

Row | Ki [nM] | Binder
50 | 0.34 | B10
51 | 5.9 | B11
52 | 2.5 | B12
53 | 3.7 | B13
54 | 2.2 | B14
55 | 0.1 | B15
56 | 13.5 | B16
57 | 1.1 | B17
